This is an account of results in article PMC6093788.

The target in this assay is azide-labeled Aβ (14–23) peptide. The assay is described as follows: AFM force spectroscopy.

By stoichiometry N is commonly meant a count of units in the complex or per binding partner. The substance azide-labeled Aβ (14–23) peptide registered a rupture force, dimer of neighbouring peptides (two-peak curves, peaks close) of 44 pN; a rupture force, dimer of peptides 1 and 3 (two-peak curves, peaks far) of 37 pN; a rupture force, monomer from the trimer (peak 1) of 48 pN; a rupture force, monomer from the trimer (peak 1), second experiment of 44 pN. This substance yielded a rupture force, remaining dimer to monomers (peak 2) of 53 pN; a rupture force, remaining dimer to monomers (peak 2), second experiment of 50 pN; a stoichiometry N of 3.
